Source: publication doi:10.1101/2025.09.13.676036

Columns and labels:
[1] = molecular target: Caldanaerovirga acetigignens double ferritin-like protein (Caldanaerovirga acetigignens); assay: SEC-MALS
[2] = molecular target: Thermocrinis minervae double ferritin-like protein (Thermocrinis minervae); assay: SEC-MALS
[3] = molecular target: Thermocrinis minervae double ferritin-like protein (Thermocrinis minervae); assay: SEC-SAXS

stoichiometry N [1] | stoichiometry N [2] | stoichiometry N [3] | Substance
2 |  |  | Caldanaerovirga acetigignens double ferritin-like protein (enzyme)
 | 2 | 2 | Thermocrinis minervae double ferritin-like protein (enzyme)
